Molecular target: recombinant GPIbα extracellular domain (UniProt P07359 17-531)
Test: SPR

B1: recombinant wild-type protein disulfide isomerase (wtPDI) (enzyme)
chain: not shown
Work on B1 yielded a Kd of 900 nM.

Source: PMC6464389 (Circulation, 2019)
